From US20050209137A1 (published 2005)

B1: chicken leptin (ligand, UniProt O42164 19-163, looked up)
chain: VPCQIFQDDTKTLIKTIVTRINDISHTSVSAKQRVTGLDFIPGLHPILSLSKMDQTLAVYQQVLTSLPSQNVLQIANDLENLRDLLHLLAFSKSCSLPQTSGLQKPESLDGVLEASLYSTEVVALSRLQGSLQDILQQLDISPEC
notes: also called chLeptin; ChLeptin
B2: recombinant chicken leptin receptor binding domain (chLBD), amino acids 419-624 of the chicken leptin receptor (receptor)
chain: MAVDVNINIKCETDGYLTKMTCRWSANPNALLLGSSLQLRYHRSKIYCSNFPSTPPESEVKECHFQRNHSYECTFQPVFLLSGYTMWIELKHSLGTLESSPTCVVPADVVKPLPPSNIKAEITRNDGLLNVSWTNPVFTNDDLKFQIRYAVNREELTWELYEVLSVPTRSAVIEVQLCVEYIVQIRCRALDGLGYWSNWSRSAYAAVKD
notes: also called CLBD
B3: recombinant human leptin receptor leptin-binding domain (LBD), amino acids 428-635 of the human leptin receptor (receptor)
chain: MAIDVNINISCETDGYLTKMTCRWSTSTIQSLAESTLQLRYHRSSLYCSDIPSIHPISEPKDCYLQSDGFYECIFQPIFLLSGYTMWIRINHSLGSLDSPPTCVLPDSVVKPLPPSSVKAEITINIGLLKISWEKPVFPENNLQFQIRYGLSGKEVQWKMYEVYDAKSKSVSLPVPDLCAVYAVQVRCKRLDGLGYWSNWSNPAYTVVMD
notes: also called hLBD; human LBD
B4: ovine leptin (fraction SP) (ligand, UniProt Q28603 1-146, looked up)
chain: VPIRKVQDDTKTLIKTIVTRINDISHTQSVSSKQRVTGLDFIPGLHPLLSLSKMDQTLAIYQQILASLPSRNVIQISNDLENLRDLLHLLAASKSCPLPQVRALESLESLGVVLEASLYSTEVVALSRLQGSLQDMLRQLDLSPGC

Assays:
[1] = target: B3; assay: SPR
[2] = target: long form of human leptin receptor, stably transfected in BAF/3 cells (cell homogenate) (human) (UniProt P48357); assay: competition with 125I-hLEP, homogenate of BAF/3 cells with long-form human leptin receptor
[3] = target: B2; assay: inhibition of binding of 125I-hLep to chLBD by unlabeled leptin; the curve only falls to about 66 % at the highest concentration shown (about 10^-4.2 M), the printed value lies beyond the range
Procedure: Binding Assays—Radiolabeled human ¹²⁵I-leptin served as a ligand, and other (human, ovine, and chicken) nonlabeled leptins served as competitors. The experiments were conducted using either recombinant LBD or homogenates of BAF/3 cells stably transfected with the long form of hLEP receptor. In the latter case, the cells were cultured in Dulbecco's modified Eagle's medium supplemented with 5% fetal calf serum in the presence of IL-3 to minimize leptin-receptor down-regulation until a concentration of 10⁶ cells/ml was reached. Then the cells were spun and stored at −70° C. […] Each tube contained 150 or 200 μl of reaction buffer in the case of the assay with the cells or recombinant LBD, respectively, 100 μl of ¹²⁵I-hLEP (100,000 cpm for cells or 180,000 cpm for binding domain assays), and 100 μl of different leptin solutions (providing 0-5000 ng/tube) in the reaction buffer, and the reaction was started by addition of 150 μl of cell homogenate or 100 μl of LBD (20 ng). The tubes were incubated for 24 h at room temperature. Then the leptin receptor complex was precipitated by adding 250 μl of 1% (w/v) bovine immunoglobulin and 500 μl of 20% (w/v) polyethylene glycol. After thorough mixing, the tubes were incubated for 20 min at 4° C. and centrifuged at 12,000×g for 15 min at 4° C. Then supernatant was carefully aspirated, and the precipitates were counted in a Kontron ?-counter. […]

chicken leptin [4] = target: B1; assay: SPR
recombinant human leptin [5] = target: T1, recombinant human leptin (human, UniProt P41159 22-167); assay: SPR
T1 construct: mature; also called hLEP; hLeptin

[6] = target: B4; assay: gel filtration of hormone:chLBD mixtures at various molar ratios, retention times printed over the peaks
recombinant human leptin [7] = target: T1, recombinant human leptin; assay: Scatchard plot (bound/free against bound) of the binding of 125I-hLep to chLBD, inset
recombinant human leptin [8] = target: T1, recombinant human leptin; assay: SPR, hLEP immobilized on CM5, LBD in flow
Procedure: Kinetic Measurements of LBD-hLEP Interactions—All experiments were performed at 25° C. using surface plasmon resonance (SPR) methodology. The kinetics and equilibrium constants for the interaction between hLEP and LBD were determined using the Biacore 3000 system (Uppsala, Sweden). hLEP was immobilized in a flow cell of a research-grade CM5 sensor chip using amine-coupling chemistry (Lofas, S. et al (1990) J. Chem. Soc. Chem. Commun. 21, 1526-1528). The immobilization steps were carried out at a flow rate of 10 μl/min in HBS-EP buffer. The surface was activated for 7 min with a mixture of N-hydroxysuccinimide (0.05 M) and N-ethyl-N′(3-dimethylaminopropyl)-carbodiimide hydrochloride (0.2 M). hLEP was injected at a concentration of 50 μg/ml in 10 mM acetate, pH 3.5, until the desired level (1000 resonance units) was achieved. Ethanolamine (1 M, pH 8.5) was injected for 7 min to block the remaining activated groups. A control surface was prepared by activating the carboxyl groups and then blocking the activated groups by ethanolamine as described. […] Regeneration of the surface after each interaction was performed by using a 10-μl pulse of 10 mM glycine buffer, pH 2. […]
SPR Determination of the Interaction between hLEP and LBD—The interactions of hLEP and LBD were analyzed by comparison with a theoretical model using Chi-square analysis.

[9] = target: B4; assay: cell-based or functional assay
recombinant human leptin [10] = target: T1, recombinant human leptin; assay: cell-based or functional assay
chicken leptin [11] = target: B1; assay: cell-based or functional assay
[12] = target: B4; assay: cell-based or functional assay; remark: listed apart in the source
recombinant human leptin [13] = target: T1, recombinant human leptin; assay: cell-based or functional assay; remark: listed apart in the source
[14] = target: T2, long form of human leptin receptor, stably transfected in BAF/3 cells (cell homogenate) (human, UniProt P48357 22-1165); assay: competition of unlabeled leptin with 125I-human leptin for binding to homogenate of BAF/3 cells transfected with the long form of human leptin receptor
T2 construct: whole, on cells; also called WT in BAF/3 cell homogenate; full-size membrane-embedded leptin receptor
T2 sequence (looked up): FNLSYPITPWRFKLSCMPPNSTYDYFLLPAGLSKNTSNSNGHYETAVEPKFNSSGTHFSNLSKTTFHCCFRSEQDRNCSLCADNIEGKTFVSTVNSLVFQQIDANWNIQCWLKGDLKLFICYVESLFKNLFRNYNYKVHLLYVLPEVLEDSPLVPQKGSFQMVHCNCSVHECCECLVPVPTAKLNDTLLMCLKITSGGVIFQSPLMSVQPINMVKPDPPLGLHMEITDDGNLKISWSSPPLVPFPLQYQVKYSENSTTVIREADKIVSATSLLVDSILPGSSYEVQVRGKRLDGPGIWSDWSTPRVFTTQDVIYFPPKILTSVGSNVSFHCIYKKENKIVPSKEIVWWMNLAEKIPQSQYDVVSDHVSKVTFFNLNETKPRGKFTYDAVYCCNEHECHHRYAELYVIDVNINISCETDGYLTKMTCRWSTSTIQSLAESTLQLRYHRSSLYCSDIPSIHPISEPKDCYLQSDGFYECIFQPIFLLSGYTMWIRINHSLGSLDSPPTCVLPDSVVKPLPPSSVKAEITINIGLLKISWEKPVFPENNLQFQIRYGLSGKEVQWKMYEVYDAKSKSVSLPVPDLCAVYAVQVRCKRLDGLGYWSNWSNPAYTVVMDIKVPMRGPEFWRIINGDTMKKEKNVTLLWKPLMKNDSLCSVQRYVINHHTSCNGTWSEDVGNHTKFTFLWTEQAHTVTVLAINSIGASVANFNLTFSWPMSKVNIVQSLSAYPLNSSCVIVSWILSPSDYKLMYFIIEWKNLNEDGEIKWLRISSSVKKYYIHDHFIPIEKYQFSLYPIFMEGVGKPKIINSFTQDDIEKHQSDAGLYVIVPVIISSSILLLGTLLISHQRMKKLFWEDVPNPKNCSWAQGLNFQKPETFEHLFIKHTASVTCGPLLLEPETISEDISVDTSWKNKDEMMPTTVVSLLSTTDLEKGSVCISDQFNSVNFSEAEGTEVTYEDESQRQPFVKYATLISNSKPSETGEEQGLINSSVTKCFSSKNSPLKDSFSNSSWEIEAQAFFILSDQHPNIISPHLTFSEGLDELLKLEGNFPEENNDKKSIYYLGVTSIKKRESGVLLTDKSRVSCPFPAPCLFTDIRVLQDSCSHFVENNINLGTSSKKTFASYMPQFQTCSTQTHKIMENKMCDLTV
Procedure: (§1) The specific binding (%) in experiments performed with human, ovine, and chicken leptins and their mutants were, respectively, 7.3% in A, and 8.1% in B, and the nonspecific binding was respectively, 5.4 and 14%. All values for specific binding were normalized, and the solid lines and the IC₅₀ values were calculated using the PRIZMA curve-fitting program (Author, A. (1994) GraphPad Prism™, Version 2.0, GraphPad Software Inc., San Diego, Calif.).
(§2) Binding Assays—Radiolabeled human ¹²⁵I-leptin served as a ligand, and other (human, ovine, and chicken) nonlabeled leptins served as competitors. The experiments were conducted using either recombinant LBD or homogenates of BAF/3 cells stably transfected with the long form of hLEP receptor. In the latter case, the cells were cultured in Dulbecco's modified Eagle's medium supplemented with 5% fetal calf serum in the presence of IL-3 to minimize leptin-receptor down-regulation until a concentration of 10⁶ cells/ml was reached. Then the cells were spun and stored at −70° C. […] Then supernatant was carefully aspirated, and the precipitates were counted in a Kontron ?-counter.

[15] = target: B3; assay: competition of unlabeled leptin with 125I-human leptin for binding to soluble recombinant LBD, precipitation of the complex and counting
Procedure: as §1, §2

T1 sequence (P41159 22-167): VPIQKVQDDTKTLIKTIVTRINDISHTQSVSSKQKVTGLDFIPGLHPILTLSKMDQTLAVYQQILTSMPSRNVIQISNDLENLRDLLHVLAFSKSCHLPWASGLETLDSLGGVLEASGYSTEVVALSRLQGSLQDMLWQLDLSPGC

Binder: B1
- Kd [1]: 380 nM
- koff [1]: 0.0052 s⁻¹
- kon [1]: 13500 M⁻¹ s⁻¹
- fold lower capacity to displace than hLEP [2]: 20 fold
- IC50 [3]: 88000 nM

Binder: B2
- Kd (chicken leptin [4]): 1300 nM
- koff (chicken leptin [4]): 0.076 s⁻¹
- kon (chicken leptin [4]): 58300 M⁻¹ s⁻¹
- Kd (recombinant human leptin [5]): 78.5 nM
- koff (recombinant human leptin [5]): 0.0143 s⁻¹
- kon (recombinant human leptin [5]): 183000 M⁻¹ s⁻¹
- binding result [6]: binds
- Kd (recombinant human leptin [7]): 3.9 nM

Binder: B3
- complex half-life (recombinant human leptin [8]): 6.24 min
- IC50 (read off the curve) [9]: ~20 nM
- IC50 (read off the curve) (recombinant human leptin [10]): ~20 nM
- molar excess of LBD required to achieve 50% inhibition of leptin-stimulated proliferation of BAF/3 cells with the long form of human leptin receptor (chicken leptin [11]): 600 molar excess
- molar excess of LBD required to achieve 50% inhibition of leptin-stimulated proliferation of BAF/3 cells with the long form of human leptin receptor [12]: 200 molar excess
- molar excess of LBD required to achieve 50% inhibition of leptin-stimulated proliferation of BAF/3 cells with the long form of human leptin receptor (recombinant human leptin [13]): 200 molar excess

Binder: B4
- IC50 (read off the curve) [14]: ~0.6 nM
- IC50 (read off the curve) [15]: ~8 nM
